According to patent US20240150443A1, “[…] MEASLES VIRUS” (The Trustees of Columbia University in the City of New York, priority 2021, published 2024):

Columns and labels:
[1] = target: T1, MeV IC323 F (pre-fusion, on transfected HEK293T cells) (Measles virus strain IC323, UniProt Q786F3 24-550); test: immunofluorescence of transfected HEK293T cells, Alexa 488 anti 6-histidine antibody
T1 construct: whole, on cells; also called pCAGGS-MeV IC323 F; MeV F
T1 sequence: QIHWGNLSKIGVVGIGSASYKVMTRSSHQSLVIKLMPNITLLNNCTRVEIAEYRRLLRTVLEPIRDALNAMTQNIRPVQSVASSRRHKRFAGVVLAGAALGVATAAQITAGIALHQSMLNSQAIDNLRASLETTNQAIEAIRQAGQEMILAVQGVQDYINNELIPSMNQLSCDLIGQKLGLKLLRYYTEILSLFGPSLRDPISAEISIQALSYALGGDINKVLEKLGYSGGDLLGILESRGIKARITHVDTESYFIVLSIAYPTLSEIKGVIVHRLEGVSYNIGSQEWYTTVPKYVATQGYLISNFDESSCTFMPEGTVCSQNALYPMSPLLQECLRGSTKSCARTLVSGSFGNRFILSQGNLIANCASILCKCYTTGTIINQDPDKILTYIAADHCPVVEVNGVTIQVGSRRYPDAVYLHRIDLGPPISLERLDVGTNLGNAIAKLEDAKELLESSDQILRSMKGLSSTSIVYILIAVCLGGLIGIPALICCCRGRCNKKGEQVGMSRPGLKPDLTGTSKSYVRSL

[2] = system: MeV IC323-EGFP; test: Viral spread / plaque enlargement assay in Vero-SLAM cells; type: cell-based, measles virus (MeV)
Procedure: In an effort to identify a more broadly reactive mAb, the neutralizing activity of two other previously identified mAbs, mAb 77.4 and mAb Y503, was assessed in the experiments shown in FIG. 1 I-K. Vero cells expressing the measles receptor SLAM (Vero-SLAM) were infected with MeV IC323-EGFP virus (the expression of fluorescent protein permits tracking of the spread of infection). Six hours post-infection, the cells were treated with serial dilutions of mAbs 77.4 or Y503.
(H-K) VeroSLAM cells were infected with MeV IC323-EGFP at a multiplicity of infection (MOI)=0.001. […] (K) MeV infection in Vero-SLAM cells either untreated (NT) or treated at the indicated dilution of supernatant fluids from hybridomas producing anti F-mAb 77.4 or mAb Y503 were quantified using fluorescent spectroscopy. Data are expressed as relative fluorescence units (RFUs).
The scFv was expressed in eukaryotic cells and purified by affinity purification using a 6×-hisitidine tag (see Materials and Methods). Vero-SLAM cells were infected with MeV IC323-EGFP virus and six hours post-infection, the cells were treated with serial dilutions of the scFv (62.5 μg/ml and 1.95 μg/ml are shown in 3C and CD) and immunofluorescent syncytium formation was measured to quantify viral spread 48 hours post-infection.
Plaque enlargement assay. […] Quantification was determined using fluorescent spectroscopy.

[3] = target: MeV G954 H/F fusion complex (Measles virus, UniProt Q786F3, H419R/Q139R/R70K); settings: SLAM-bearing HEK293T target cells, 6 h
Procedure: (§1) To assess the specificity of the scFV derived from mAb 77.4 for MeV F, cells expressing either MeV IC323 F or the human parainfluenza virus 3 fusion protein (HPIV3 F) were incubated with the scFv and subjected to immunofluorescence using a fluorescently-labeled Alexa 488 anti 6-histidine antibody (FIG. 3E-F). […] Finally, we assessed whether the scFv blocked cell-cell fusion mediated by either MeV IC323 or G954 H/F fusion complexes (FIG. 3G). For this experiment we used a beta-galactosidase (β-Gal) complementation assay^18 that measures the fusion of cells that express viral envelope glycoproteins (MeV IC323 or G954 H/F) with cells that express the MeV receptor SLAM (FIG. 3G). HEK293T (“target cells”) were transiently transfected with SLAM and the omega reporter subunit of beta-galactosidase, and incubated for the indicated time period in the presence of different concentrations of inhibitors with “effector cells” co-expressing MeV G954 or IC323 H and F together with the alpha reporter subunit of beta-galactosidase. Fusion between the target and effector cells leads to reconstitution of beta-galactosidase activity, which we quantified using the luminescence-based Galacto-Star™ β-Galactosidase Reporter Gene kit (ThermoFisher, US).
(§2) (A) Sequence of the single-chain variable fragment antibody derived from anti-MeV F mAb 77.4. […] Images were obtained using epifluorescent microscopy 48 h post-infection (scale bar=200 μm). (C) HEK293T cells were transfected with either pCAGGS-HPIV3 F or MeV IC323 F and stained using scFv 24 h post-transfection (scale bar=200 μm). (D) Fusion of MeV G954 or IC323 H/F co-expressing cells with SLAM-bearing cells in the presence of scFv at indicated concentrations was quantified at 6 h using a β-galactosidase complementation assay.

[4] = target: MeV IC323 H/F fusion complex (Measles virus, UniProt Q786F3); settings: SLAM-bearing HEK293T target cells, 6 h
Procedure: as §1, §2

[5] = target: human parainfluenza virus 3 fusion protein (HPIV3 F) (Human parainfluenza 3 virus, UniProt P06828); settings: HEK293T, 24 h post-transfection
Procedure: as §1, §2

[6] = system: MeV WTFb; test: In vivo prophylaxis against MeV infection in cotton rats (scFv, intranasal); parameters: species or system cotton rats (Sigmodon hispidus)
Procedure: To assess anti-MeV prophylaxis by the scFv in vivo, we used cotton rats (CR) as an infection model. The scFv antibody construct was administrated via intranasal delivery 24 and 12 h before infection. Four days after infection, the animals were euthanized, and the viral titers in the animals' lungs were quantified.
Cotton rats were infected intranasally with 10^5 TCID50/ml of MeV WTFb. Animals received either the indicated amount of mAb 77.4-derived scFv construct (n=4) or vehicle (n=8) 24 h and 12 h prior to infection. Animals were euthanized 5 days after infection. Lungs were collected and homogenized for TCID50 titration. Results are presented as TCID50/g of lung. Statistical analyses were performed using the Mann-Whitney U-test.
In vivo experiments: Cotton rats. Inbred cotton rats (Sigmodon hispidus) were purchased from Envigo, Inc., Indianapolis. Both male and female cotton rats aged 5 to 7 weeks were used. For infection, 10^5 TCID50 of MeV (strain WTFb) was inoculated intranasally to isofluorane-anesthetised cotton rats in a volume of 100 μl. Treatment was performed in the same way at the indicated time points. Four days after infection, the animals were euthanized using CO2 inhalation, and their lungs were collected and weighed. Lung tissue was minced with scissors and homogenized with a glass dounce homogenizer. Vero-SLAM cells were inoculated with serial 10-fold dilutions of supernatant fluids to assess the presence of infectious virus in 48-well plates using cytopathic effect (CPE) as an endpoint. Plates were scored for CPE microscopically after 7 days, and the TCID50 was calculated as described previously^43.

B1: single-chain variable fragment (scFv) derived from anti-MeV F mAb 77.4 (scFv)
scFv: MDVQLQESGPGLVKPSQSLSLTCTVSGYSITSDYAWNWIRQFPGNKLEWMGYISYTLTTGYNPSLKSRISITRDSSKNQFFLQLNSVTTEDTATYYCARSGWLLPYWYFDVWGAGTTVTVSSGGGGSGGGSGGGGSDVQITQSPSYLAASPGETITINCRASKSISKYLAWYQEKPGKTNELLIYSGSTLQSGIPSRFRGSGSGTDFTLTISSLEPEDFAMYYCQQHNEYTLTFGGGTKLELKRHHHHHH
notes: also called mAb 77.4-derived scFv
B1: binds [1].

B2: scFv: single-chain fragment made by fusing VH and VL of mAb 77.4 via G4S linker, 6x-histidine tag; SEQ ID NO:3 (protein)
scFv: MDVQLQESGPGLVKPSQSLSLTCTVSGYSITSDYAWNWIRQFPGNKLEWMGYISYTLTTGYNPSLKSRISITRDSSKNQFFLQLNSVTTEDTATYYCARSGWLLPYWYFDVWGAGTTVTVSSGGGGSGGGSGGGGSDVQITQSPSYLAASPGETITINCRASKSISKYLAWYQEKPGKTNELLIYSGSTLQSGIPSRFRGSGSGTDFTLTISSLEPEDFAMYYCQQHNEYTLTFGGGTKLELKRHHHHHH
modifications: 6x His tag; single-chain variable fragment antibody
For B2, the “inhibition of viral infection (syncytium formation)” value ([2]; Vero-SLAM, serial dilutions of scFv, 48 hours post-infection) was “clearly inhibited viral infection”, the “in vitro potency compared with the full antibody (mAb 77.4)” value ([2]; general statement, assay not specified) was “less than that of the full antibody” and the “inhibition of cell fusion mediated by G954 H/F” value [3] was “inhibited cell fusion”. For the same molecule, the “inhibition of cell fusion mediated by IC323 H/F” value [4] was “inhibited cell fusion”, the “recognition of cells expressing HPIV3 F by scFv” value [5] was “not those expressing HPIV3 F” and the lung infection ([6]; 0.5 mg/ml intranasal 24 and 12 h before infection) was “completely inhibited lung infection”. For the same molecule, the lung infection ([6]; 1 mg/ml intranasal 24 and 12 h before infection) was “completely inhibited lung infection” and the “viral titers in the lungs compared with untreated controls” value ([6]; intranasal 24 and 12 h before infection, doses 0.25, 0.5 and 1 mg/ml) was “significantly reduced viral titers in the lungs”.
